Publication PMC5012548

B1: apMNK3R (ssDNA)
DNA: GTTGCTCGTATTTAGGGCGGGGGTGGGCGGATTTCGCAGGTGGCGTGTACACCAGTCTTCATCCGC
B2: apMNK1F (ssDNA)
DNA: GCGGATGAAGACTGGTGTACACGCCGAACCCATTGTTCCAGGCGACATGCCCTAAATACGAGCAAC
B3: apMNK4R (ssDNA)
DNA: GTTGCTCGTATTTAGGGCACACACGACGAAGACCTGGCTGCCCGTTGTACACCAGTCTTCATCCGC
B4: apMNK3F (ssDNA)
DNA: GCGGATGAAGACTGGTGTACACGCCACCTGCGAAATCCGCCCACCCCCGCCCTAAATACGAGCAAC
B5: apMNK2F (ssDNA)
DNA: GCGGATGAAGACTGGTGTGGGGTGGGCGGGCGGGGGTGGGGGTGGTATGGCGCGTTGGCCCTAAATACGAGCAAC
B6: apMNK4F (ssDNA)
DNA: GCGGATGAAGACTGGTGTACAACGGGCAGCCAGGTCTTCGTCGTGTGTGCCCTAAATACGAGCAAC

How the values were obtained:
[1] = molecular target: GST-MNK1b (human, UniProt Q9BUB5-3 1-347); test: ELONA
[2] = molecular target: T1, His-MNK1b (rMNK1b) (UniProt Q9BUB5-3 1-347); test: Ni-NTA pull-down with qPCR
[3] = molecular target: T1, His-MNK1b (rMNK1b); test: ELONA

Row | Binder | Kd [1] | binding result [2] | binding result [3]
1 | B1 | 6.36 ± 1.72 nM | – | –
2 | B2 | – | binds | –
3 | B3 | – | binds | –
4 | B4 | – | – | binds
5 | B5 | 1.79 ± 0.48 nM | – | –
6 | B6 | – | – | binds
